This test has as its target FlagV1P. The experiment in a line: fluorescence microscopy with FITC-labeled pentabody on whole bacteria.

The values below come from patent US20180142000A1 (NATIONAL RESEARCH COUNCIL OF CANADA, published 2018).

B1: C. jejuni strain 11168 flagella (other)
chain 1: GFRINTNVAALNAKANADLNSKSLDASLSRLSSGLRINSAADDASGMAIADSLRSQANTLGQAISNGNDALGILQTADKAMDEQLKILDTIKTKATQAAQDGQSLKTRTMLQADINRLMEELDNIANTTSFNGKQLLSGNFINQEFQIGASSNQTVKATIGATQSSKIGLTRFETGGRISTSGEVQFTLKNYNGIDDFQFQKVVISTSVGTGLGALADEINKNADKTGVRATFTVETRGIAAVRAGATSDTFAINGVKIGKVDYKDGDANGALVAAINSVKDTTGVEASIDANGQLLLTSREGRGIKIDGNIGGGAFINADMKENYGRLSLVKNDGKDILISGSNLSSAGFGATQFISQASVSLRESKGQIDANIADAMGFGSANKGVVLGGYSSVSAYMSSAGSGFSSGSGYSVGSGKNYSTGFANAIAISAASQLSTVYNVSAGSGFSSGSTLSQFATMKTTAFGVKDETAGVTTLKGAMAVMDIAETAITNLDQIRADIGSVQNQVTSTINNITVTQVNVKAAESQIRDVDFAAESANYSKANILAQSGSYAMAQANSVQQNVLRLLQ
chain 2: GFRINTNIGALNAHANSVVNARELDKSLSRLSSGLRINSAADDASGMAIADSLRSQAATLGQAINNGNDAIGILQTADKAMDEQLKILDTIKTKATQAAQDGQSLKTRTMLQADINRLMEELDNIANTTSFNGKQLLSGNFINQEFQIGASSNQTIKATIGATQSSKIGLTRFETGGRISSSGEVQFTLKNYNGIDDFQFQKVVISTSVGTGLGALAEEINKSADKTGVRATFTVETRGIAAVRAGTTSDTFAINGVTIGQVAYEDGDGNGALVAAINSVKDTTGVEASIDANGQLLLTSREGRGIKIDGNIGGGAFINADMKENYGRLSLVKNDGKDILISGSNLSSAGFGATQFISQASVSLRESKGRFDANIADAMGFGSANKGVVLGGYSSVSAYMSSAGSGFSSGSGYSVGSGKNYSTGFANAIAISAASQLSTVYNVSAGSGFSSGSTLSQFATMKTTAFGVKDETAGVTTLKGAMAVMDIAETATTNLDQIRADIGSVQNQLQVTINNITVTQVNVKAAESTIRDVDFAAESANFSKYNILAQSGSYAMSQANAVQQNVLKLLQ
Consider B1, for which the binding result is recorded as “no binding”.
